Experimental data: patent publication US20260250420A1 (SICHUAN KELUN BIOTECH BIOPHARMACEUTICAL, published 2026)

Target: T1, human PTK7 on cells (tumor cells endogenously expressing PTK7); CHO-hPTK7, CHO-S-hPTK7 and 293T-hPTK7 … (human, UniProt Q13308 31-1070)
T1 construct: whole, on cells; The cell line of each value is named under assay; also called H1299; H358
T1 sequence (looked up): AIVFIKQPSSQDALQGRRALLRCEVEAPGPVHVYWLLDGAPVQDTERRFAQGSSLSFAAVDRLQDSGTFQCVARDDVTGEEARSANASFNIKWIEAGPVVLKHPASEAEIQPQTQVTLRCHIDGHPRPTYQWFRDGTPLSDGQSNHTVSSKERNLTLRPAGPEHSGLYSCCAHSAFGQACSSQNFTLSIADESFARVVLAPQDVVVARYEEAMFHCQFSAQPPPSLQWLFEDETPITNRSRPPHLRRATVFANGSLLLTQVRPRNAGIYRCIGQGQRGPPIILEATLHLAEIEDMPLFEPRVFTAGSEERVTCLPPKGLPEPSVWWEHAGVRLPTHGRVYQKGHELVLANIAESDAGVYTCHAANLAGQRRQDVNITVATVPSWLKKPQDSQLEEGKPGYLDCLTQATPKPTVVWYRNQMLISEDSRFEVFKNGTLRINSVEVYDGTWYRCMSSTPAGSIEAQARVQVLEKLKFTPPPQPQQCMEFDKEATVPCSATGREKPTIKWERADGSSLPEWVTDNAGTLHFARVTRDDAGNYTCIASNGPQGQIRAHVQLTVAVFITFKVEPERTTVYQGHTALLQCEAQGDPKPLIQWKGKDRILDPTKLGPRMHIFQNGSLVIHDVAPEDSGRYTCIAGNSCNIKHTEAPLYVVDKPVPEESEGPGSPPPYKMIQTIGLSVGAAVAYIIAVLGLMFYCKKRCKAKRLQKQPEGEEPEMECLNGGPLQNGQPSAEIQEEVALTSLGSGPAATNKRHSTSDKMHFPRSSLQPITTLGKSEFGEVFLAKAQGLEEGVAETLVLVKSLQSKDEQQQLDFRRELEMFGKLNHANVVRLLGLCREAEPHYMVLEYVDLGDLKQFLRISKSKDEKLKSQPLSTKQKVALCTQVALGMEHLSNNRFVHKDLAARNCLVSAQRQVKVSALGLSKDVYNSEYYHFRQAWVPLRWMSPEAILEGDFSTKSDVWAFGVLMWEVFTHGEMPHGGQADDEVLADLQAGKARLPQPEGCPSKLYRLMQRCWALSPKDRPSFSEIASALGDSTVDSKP
Assay: flow cytometry on OVCAR-3 cells
From the text: A flow cytometer (Beckman, Cytoflex) was used for detecting the affinity of the anti-human PTK7 chimeric and humanized antibodies with human non-small cell lung cancer cells H1299, human lung adenocarcinoma cells H1975, human breast cancer cells T47D, human ovarian cancer cells OVCAR-3 (all purchased from NANJING COBIOER BIOSCIENCES CO., LTD) and CHO-hPTK7 overexpression cells.
The adherent cells were digested by using a pancreatin (Gibco) solution; a proper amount of cells were counted and taken, washed twice by using 1×PBS, and re-suspended in a 1% BSA solution; and then the cells were transferred into a 96-well deep plate at a density of 50 μl/well; a candidate antibody was diluted by using 1% BSA, then 50 μl of diluted antibody was added into the deep plate containing the cells, and incubated for 40 min at 4° C.; the cells were washed twice by using PBS, then 50 μl of diluted secondary antibody was added into each well, uniformly mixed, and incubated for 30 min at 4° C.; and the cells were washed twice by using PBS, then re-suspended in 400 μl of PBS, and subjected to examination by flow cytometer.

B1: 64A10HZ05 (VH3+VL2) (anti-human PTK7 humanized antibody) (antibody, human IgG1, kappa, V domains shown)
VH: QVQLQESGPGLVKPSETLSLTCTVSGFSLTSYGVYWVRQPPGKGLEWLGVIWTSGNTNYNPSLKSRLTISKDNSKNQVSLKLSSVTAADTAVYYCVKHDGGNYVGVMNYWGQGTLVTVSS
VL: DIQMTQSPSSLSASVGDRVTITCRASQSISDYLHWYQQKPGKAPKLLIKYASQSISGVPSRFSGSGSGSDFTLTISSLQPEDFATYYCQNGHSFPPTFGGGTKVEIKR
notes: Human IgG1 heavy chain constant region and human Kappa light chain constant region
- EC50: 0.0397 µg/mL
